Reference: CN115043940A (TIANCHEN BIOMEDICAL SUZHOU CO LTD, dated 2022)

How the values were obtained:
[1] = biological target: T1, 人血清白蛋白(Human Serum Albumin,HSA) (human, UniProt P02768 25-609); assay: Octet BLI, biotinylated HSA on SA sensor, VHH in solution
T1 construct: The only source named is native HSA (abcam ab205808), for immunisation; also called HSA蛋白; HSA抗原

食蟹猴血清白蛋白 = biological target: T2, 食蟹猴血清白蛋白 (cynomolgus monkey (食蟹猴), UniProt A2V9Z4 25-608, biotin-labelled (sites not given)); assay: Octet BLI, biotinylated cynomolgus serum albumin on SA sensor, VHH in solution
T2 construct: Biotin-labelled and loaded on SA sensors in the Octet assay; also called albumin-macaca; alb-ma
T2 sequence (A2V9Z4 25-608 limits assumed): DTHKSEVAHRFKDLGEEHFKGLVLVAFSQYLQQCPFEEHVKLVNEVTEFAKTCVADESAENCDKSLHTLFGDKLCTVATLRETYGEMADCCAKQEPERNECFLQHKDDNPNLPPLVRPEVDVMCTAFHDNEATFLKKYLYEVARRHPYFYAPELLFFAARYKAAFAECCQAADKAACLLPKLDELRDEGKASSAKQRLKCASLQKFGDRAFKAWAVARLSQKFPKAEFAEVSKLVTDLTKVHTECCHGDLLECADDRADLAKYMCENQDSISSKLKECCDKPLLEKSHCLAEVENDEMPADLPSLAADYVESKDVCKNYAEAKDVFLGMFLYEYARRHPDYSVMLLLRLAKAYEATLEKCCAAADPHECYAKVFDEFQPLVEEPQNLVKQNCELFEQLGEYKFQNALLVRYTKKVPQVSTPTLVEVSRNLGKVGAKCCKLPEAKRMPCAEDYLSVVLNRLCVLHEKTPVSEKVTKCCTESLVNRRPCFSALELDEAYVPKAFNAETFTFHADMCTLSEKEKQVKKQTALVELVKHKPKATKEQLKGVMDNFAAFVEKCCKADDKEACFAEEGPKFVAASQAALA

T1 sequence (P02768 25-609 limits assumed): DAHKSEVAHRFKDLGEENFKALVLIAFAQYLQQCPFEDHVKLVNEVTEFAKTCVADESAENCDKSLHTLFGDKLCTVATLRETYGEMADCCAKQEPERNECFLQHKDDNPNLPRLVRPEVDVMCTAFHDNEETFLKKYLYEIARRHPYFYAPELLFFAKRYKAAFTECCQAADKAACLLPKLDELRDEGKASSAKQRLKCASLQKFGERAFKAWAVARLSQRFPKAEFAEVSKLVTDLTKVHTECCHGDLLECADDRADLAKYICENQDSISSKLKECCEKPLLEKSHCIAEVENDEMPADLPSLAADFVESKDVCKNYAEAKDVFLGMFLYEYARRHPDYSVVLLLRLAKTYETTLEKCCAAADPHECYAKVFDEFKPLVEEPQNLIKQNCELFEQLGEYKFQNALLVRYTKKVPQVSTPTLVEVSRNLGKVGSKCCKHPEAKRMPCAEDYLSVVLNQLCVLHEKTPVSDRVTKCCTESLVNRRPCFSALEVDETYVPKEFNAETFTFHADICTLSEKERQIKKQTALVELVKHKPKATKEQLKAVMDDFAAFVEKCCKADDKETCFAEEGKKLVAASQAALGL

Kd [1] | koff [1] | kon [1] | Kd (食蟹猴血清白蛋白) | koff (食蟹猴血清白蛋白) | kon (食蟹猴血清白蛋白) | Binder
1.24 nM | 0.000687 s⁻¹ | 554000 M⁻¹ s⁻¹ | 0.217 nM | 2.69e-05 s⁻¹ | 124000 M⁻¹ s⁻¹ | 单域抗体LB21 (VHH, not shown: C-terminal 6xHis-tag and HA-tag) VHH: QVQLVESGGGLVQPGGSLRLSCAASRIIFDVYNLAWFRQAPGKERELVASITSGLSTDYATTVKGRFIISRDNAKNTVYLQMNNLKPEDTAVYYCTANSRTTWYYWGQGTLVTVSS
0.109 nM | 0.00014 s⁻¹ | 1.29e+06 M⁻¹ s⁻¹ | 0.708 nM | 6.47e-05 s⁻¹ | 91300 M⁻¹ s⁻¹ | 单域抗体LB22 (VHH, not shown: C-terminal 6xHis-tag and HA-tag) VHH: QVQLQESGGGVVQPGGSLRLSCTASGFTFSVYAMGWYRQAPGKDCELVGLITSTSDTRYADSVKGRFSISRDNAKKTVYLQMNRLKPEDTAVYYCMAGNSWGATVQAMCKSDYDYWGQGTQVTVSS
